In paper PMC8906434:

Target: PB2-C (amino acids 247 to 736) from influenza A/Vietnam/1203/2004 (H5N1) virus (influenza A/Vietnam/1203/2004 (H5N1))
Test: SEC + other: SAXS

Rab11a_(1-173) (truncated Rab11a, GST tag removed) (from UniProt P62491 1-173) (domain or fragment)
stoichiometry N: 1
